Results: patent publication US20250084158A1 (ABL BIO, published 2025)

Key:
hFc-Human CLL1 = target: T1, hFc-Human CLL1 (human); test: ELISA, coated antigen
T1 construct: Human CLL1 with N-terminal human IgG1 Fc, made in-house; also called hFc-huCLL1
Procedure: Antibody candidates of Example 1.2. were analyzed to compare the ligand binding activity by ELISA, using huCLL1-His and hFc-huCLL1 as ligands.
(§1) Briefly, the antigen (ligand) was coated overnight at 4VC. The antigen coated plate was blocked with 1% BSA in PBS at 4VC for 2 hr and incubated with antibodies at 4° C. for 2 hrs. To find out the EC₅₀ (nM) of each antibody, 4-fold serial dilutions were prepared from an antibody solution of a concentration of 50 nM to 0.2 pM and diluted antibodies were treated to each well, and the plate was washed with 1×PBST. Then Goat anti-Human IgG F(ab′)2 cross-adsorbed secondary antibody conjugated with HRP (horseradish peroxidase) (Thermo, 31414) was added to each well and incubated at 4° C. for 1 hr. After wash, a TMB (3,3′,5,5′-tetramethylbenzidine) substrate (Sigma, T0440) was added to each well and the OD at 450 nm was measured by an ELISA plate reader.

human CLL-1 on cells [1] = target: T2, human CLL-1 on cells (human, UniProt Q5QGZ9 1-265); test: FACS, HL60 cells (2nd Ab only 5.09)
T2 construct: whole, on cells; Overexpressed in HEK293E cells or carried by CLL1-expressing leukemic cell lines; the cell line is named under assay or readout; also called CLEC12A; huCLL1_293E
T2 sequence (looked up): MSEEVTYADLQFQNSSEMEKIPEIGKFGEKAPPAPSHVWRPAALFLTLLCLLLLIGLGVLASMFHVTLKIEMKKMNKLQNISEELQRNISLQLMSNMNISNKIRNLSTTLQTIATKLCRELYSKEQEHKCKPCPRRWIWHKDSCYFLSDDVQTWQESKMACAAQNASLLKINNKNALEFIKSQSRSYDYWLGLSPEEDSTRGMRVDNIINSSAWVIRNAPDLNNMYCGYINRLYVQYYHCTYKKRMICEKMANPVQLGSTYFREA
Procedure: (§2) To evaluate cell binding property, the chimeric antibody candidates of Example 1.2. were analyzed in CLL1 negative cells (HEK293E and Jurkat) and various CLL1 expressing cancer cells by using FACS.
(§3) Briefly, cells were incubated with antibodies at 4° C. for 1 hr. Firstly, the cells were washed with an assay buffer (1% BSA in PBS). Then, an anti-human IgG Fc conjugated with FITC (Fluorescein isothiocyanate) (Sigma, F9512) was added to each well and incubated at 4° C. for 1 hr. After wash, the MFI (Median Fluorescence Intensity) of FITC was measured by BD FACS Cal ibur (BD Biosciences).

human CLL-1 on cells [2] = target: T2, human CLL-1 on cells; test: FACS, PL21 cells (2nd Ab only 2.82)
Procedure: as §2, §3

human CLL-1 on cells [3] = target: T2, human CLL-1 on cells; test: FACS, U937 cells (2nd Ab only 4.77)
Procedure: as §2, §3

human CLL-1 on cells [4] = target: T2, human CLL-1 on cells; test: FACS, EOL-1 cells (2nd Ab only 2.53)
Procedure: as §2, §3

human CLL-1 on cells [5] = target: T2, human CLL-1 on cells; test: FACS, OCI-AML2 cells (2nd Ab only 3.28)
Procedure: as §2, §3

human CLL-1 on cells [6] = target: T2, human CLL-1 on cells; test: FACS, huCLL1_293E cells (2nd Ab only 5.05)
Procedure: as §2, §3

hFc-Cynomolgus CLL1 = target: T3, hFc-Cynomolgus CLL1 (cynomolgus); test: ELISA, 50 and 100 ng/well coated antigen; stronger than reference 6E7
T3 construct: Cynomolgus CLL1 with N-terminal human IgG1 Fc, made in-house
Procedure: as §1
Continuously, antibody candidates of Example 1.2. were analyzed to compare the ligand binding activities by ELISA, using 50 ng/well and 100 ng/well of hFc-Cynomolgus CLL1 as a ligandin the same manner as described above. Genentech's anti-CLL-1 antibody 6E7 was used as a reference.

human CLL-1 on cells [7] = target: T2, human CLL-1 on cells; test: cell-based or functional assay
human CLL-1 on cells [8] = target: T2, human CLL-1 on cells; test: cell-based or functional assay; remark: listed apart in the source
human CLL-1 on cells [9] = target: T2, human CLL-1 on cells; test: cell-based or functional assay; remark: listed apart in the source
human CLL-1 on cells [10] = target: T2, human CLL-1 on cells; test: cell-based or functional assay; remark: listed apart in the source
human CLL-1 on cells [11] = target: T2, human CLL-1 on cells; test: FACS (PE-anti-human IgG), U937 cells
Procedure: (§4) To evaluate the tumor antigen binding property of the bispecific antibody of Example 3, the binding ability of CLL1 targeting portions of 33C2/CD3-R2 and 33C2/CD3-R3 to CLL1 expressed in mammalian cells were analyzed by using FACS.
(§5) Briefly, CLL1 positive cells (U937 and HL60) were incubated with 33C2/CD3-R2 and 33C2/CD3-R3 antibodies. After washing with a FACS buffer (1% BSA in PBS), the PE-anti-human IgG antibodies were added to each well and incubated at 4° C. for 60 min. The MFI (Median Fluorescence Intensity) of PE (phycoerythrin) was evaluated by FACS Calibur. BsAb mock/CD3, which has an anti-CD3 antigen-binding fragment at one arm, and no antigen-binding fragment at another arm, was used as a control group.

human CLL-1 on cells [12] = target: T2, human CLL-1 on cells; test: FACS (PE-anti-human IgG), HL-60 cells
Procedure: as §4, §5

T3 sequence (chain, as listed by the source limits assumed): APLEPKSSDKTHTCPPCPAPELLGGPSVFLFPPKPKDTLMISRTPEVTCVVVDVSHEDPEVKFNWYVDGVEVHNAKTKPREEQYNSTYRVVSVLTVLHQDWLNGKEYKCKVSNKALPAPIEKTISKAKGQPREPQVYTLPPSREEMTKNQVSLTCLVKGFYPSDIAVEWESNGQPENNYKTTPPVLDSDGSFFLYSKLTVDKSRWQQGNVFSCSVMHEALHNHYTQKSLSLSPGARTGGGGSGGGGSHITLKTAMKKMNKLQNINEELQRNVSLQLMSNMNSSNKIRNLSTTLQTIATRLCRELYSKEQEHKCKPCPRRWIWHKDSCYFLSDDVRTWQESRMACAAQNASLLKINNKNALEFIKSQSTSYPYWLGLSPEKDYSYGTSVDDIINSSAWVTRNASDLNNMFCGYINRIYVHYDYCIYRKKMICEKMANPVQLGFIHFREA

B1: ch16C6(NA) (antibody, human IgG1, kappa, N297A, V domains shown)
VH: EVQLQQSGPELVKPGASVKISCKASGYSFTGYYMHWVKQSHVKSLEWIGHVNPYNGATSFNRNFKDKASLTVDKSSSTAYMELHSLTSEDSAVYYCGRSAYGYYERHFDYWGQGTTLTVSS
VL: DIVLTQSPASLAVSLGQRATISCKASQSVDYDADSYMNWYQQKPGQPPKLLIYAASNLQSGIPARFSGSGSGTDFTLNIHPVEEEDAATYYCQQSDRDPLTFGAGTKLELKR
notes: also called chimeric antibody of 16C6
binding result (hFc-Human CLL1): binds | MFI(FL1-H) (human CLL-1 on cells [1]): 18.5 | MFI(FL1-H) (human CLL-1 on cells [2]): 38.6 | MFI(FL1-H) (human CLL-1 on cells [3]): 45.8 | MFI(FL1-H) (human CLL-1 on cells [4]): 3.73 | MFI(FL1-H) (human CLL-1 on cells [5]): 19.5 | MFI(FL1-H) (human CLL-1 on cells [6]): 115 | binding result (hFc-Cynomolgus CLL1): binds

B2: 33C2/CD3-R3 (bispecific antibody, human IgG1, kappa, N297A)
heavy 1: not shown
heavy 2: QVQLVQSGAEVKKPGASVKVSCKASGYSFTGYAMNWVRQAPGQRLEWIGLINPYNGGAMYNQKFKGRATLTVDTSASTAYMELSSLRSEDTAVYYCARDYRYEGHLDYWGQGTLVTVSSASTKGPSVFPLAPSSKSTSGGTAALGCLVKDYFPEPVTVSWNSGALTSGVHTFPAVLQSSGLYSLSSVVTVPSSSLGTQTYICNVNHKPSNTKVDKKVEPKSCDKTHTCPPCPAPELLGGPSVFLFPPKPKDTLMISRTPEVTCVVVDVSHEDPEVKFNWYVDGVEVHNAKTKPREEQYASTYRVVSVLTVLHQDWLNGKEYKCKVSNKALPAPIEKTISKAKGQPREPQVCTLPPSREEMTKNQVSLSCAVKGFYPSDIAVEWESNGQPENNYKTTPPVLDSDGSFFLVSKLTVDKSRWQQGNVFSCSVMHEALHNHYTQKSLSLSPGK
light 1: EIVLTQSPATLSLSPGERATLSCSATSSVSYMHWYQQKPGQAPRRWIYDTSKLASGIPARFSGSGSGTSYTLTISSLEPEDFAVYYCQQWSSDSPTFGQGTKLEIKRTVAAPSVFIFPPSDEQLKSGTASVVCLLNNFYPREAKVQWKVDNALQSGNSQESVTEQDSKDSTYSLSSTLTLSKADYEKHKVYACEVTHQGLSSPVTKSFNRGEC
light 2: DIVMTQSPDSLAVSLGERATINCKSSQSLLNSRTRKNYLAWYQQKPGQPPKLLIYWASTRQSGVPDRFSGSGSGTDFTLTISSLQAEDVAVYYCTQSHTLRTFGGGTKVEIKPDIQNPDPAVYQLRDSKSSDKSVCLFTDFDSQTQVSQSKDSDVYITDKCVLDMRSMDFKSNSAVAWSQKSDFACANAFQNSIIPEDTFFPSPESS
notes: As 33C2/CD3-R2 but with the (G4S)3 linker; also called anti-CLL-1/anti-CD3 bispecific antibody with (G4S)3 linker
T-cell activation (NFAT reporter effector cells) with HL-60, EC50 (human CLL-1 on cells [7]): 40 pM | T-cell activation (NFAT reporter effector cells) with U937, EC50 (human CLL-1 on cells [7]): 16 pM | CD25 on CD4 T cells, HL60 targets, EC50 (human CLL-1 on cells [8]): 1.94 pM | CD25 on CD8 T cells, HL60 targets, EC50 (human CLL-1 on cells [8]): 2.09 pM | CD69 on CD4 T cells, HL60 targets, EC50 (human CLL-1 on cells [8]): 0.8 pM | CD69 on CD8 T cells, HL60 targets, EC50 (human CLL-1 on cells [8]): 0.57 pM | U937 cell lysis (so in the source); Table 21 is the HL60 table by paragraph 356), EC50 (human CLL-1 on cells [8]): 0.97 pM | CD25 on CD4 T cells, U937 targets, EC50 (human CLL-1 on cells [9]): 1.23 pM | CD25 on CD8 T cells, U937 targets, EC50 (human CLL-1 on cells [9]): 1.1 pM | CD69 on CD4 T cells, U937 targets, EC50 (human CLL-1 on cells [9]): 0.61 pM | CD69 on CD8 T cells, U937 targets, EC50 (human CLL-1 on cells [9]): ~0.5 pM | U937 cell lysis, EC50 (human CLL-1 on cells [9]): 0.15 pM | specific lysis of HL-60, PBMC donor ABL06, EC50 (human CLL-1 on cells [10]): 5.07 pM | specific lysis of HL-60, PBMC donor ABL09, EC50 (human CLL-1 on cells [10]): 1.26 pM | specific lysis of HL-60, PBMC donor ABL10, EC50 (human CLL-1 on cells [10]): 0.97 pM | specific lysis of HL-60, PBMC donor ABL15, EC50 (human CLL-1 on cells [10]): 3.04 pM | specific lysis of HL-60, PBMC donor ABL16, EC50 (human CLL-1 on cells [10]): 7.01 pM | specific lysis of HL-60, PBMC donor ABL17, EC50 (human CLL-1 on cells [10]): 16.6 pM | specific lysis of HL-60, PBMC donor ABL18, EC50 (human CLL-1 on cells [10]): 9.43 pM | specific lysis of HL-60, PBMC donor ABL19, EC50 (human CLL-1 on cells [10]): 8.18 pM | specific lysis of U937, PBMC donor ABL06, EC50 (human CLL-1 on cells [10]): 0.57 pM | specific lysis of U937, PBMC donor ABL09, EC50 (human CLL-1 on cells [10]): 0.08 pM | specific lysis of U937, PBMC donor ABL10, EC50 (human CLL-1 on cells [10]): 0.15 pM | specific lysis of U937, PBMC donor ABL15, EC50 (human CLL-1 on cells [10]): 0.04 pM | specific lysis of U937, PBMC donor ABL16, EC50 (human CLL-1 on cells [10]): 0.03 pM | specific lysis of U937, PBMC donor ABL17, EC50 (human CLL-1 on cells [10]): 1.69 pM | specific lysis of U937, PBMC donor ABL18, EC50 (human CLL-1 on cells [10]): 3.05 pM | specific lysis of U937, PBMC donor ABL19, EC50 (human CLL-1 on cells [10]): 0.39 pM | EC50 (human CLL-1 on cells [11]): 250 pM | EC50 (human CLL-1 on cells [12]): 90 pM

B3: ch33C2(NA) (antibody, human IgG1, kappa, N297A, V domains shown)
VH: EVQLQQSGPELVKPGASMKISCKASGYSFTGYAMNWVKQSHGKNLEWIGLINPYNGGAMYNQKFKGKATLTVDKSTSTAYMELLSLTSEDSAVYYCARDYRYEGHLDYWGQGTTLTVSS
VL: QIVLTQSPVIMSASPGEKVTMTCSATSSVSYMHWYQQKSGTSPKRWIYDTSKLASGVPVRFSGSGSGTSYSLTISRMEAEDAATYYCQQWSSDSPTFGVGTKLELKR
notes: also called chimeric antibody of 33C2
binding result (hFc-Human CLL1): binds | MFI(FL1-H) (human CLL-1 on cells [1]): 19.1 | MFI(FL1-H) (human CLL-1 on cells [2]): 38.8 | MFI(FL1-H) (human CLL-1 on cells [3]): 48.1 | MFI(FL1-H) (human CLL-1 on cells [4]): 3.6 | MFI(FL1-H) (human CLL-1 on cells [5]): 19.3 | MFI(FL1-H) (human CLL-1 on cells [6]): 77.7 | binding result (hFc-Cynomolgus CLL1): binds
